# Measured values reported in the Human Domainome abundance scans (Beltran et al. 2025).
# ± gives the uncertainty stated by the source.
# B1: Ankyrin-3, residues 4094 to 4171; numbered along this chain, Q12955 (parent)
# chain: MAIVADHLGLSWTELARELNFSVDEINQIRVENPNSLISQSFMLLKKWVTRDGKNATTDALTSVLTKINRIDIVTLLE
# Variants of: B1
# Assay: abundance fitness (aPCA) (normalised: wild type 0, dead -1); higher = more abundant; growth selection in yeast, the domain comes from the species named
# Conditions: Homo sapiens
row,Variant,abundance fitness
1,M1K,-0.421 ± 0.1
2,L44Y,-0.693 ± 0.27
3,R17L,-0.06 ± 0.051
4,V49R,0.024 ± 0.057
5,N33W,-0.204 ± 0.066
6,I26T,-0.755 ± 0.27
7,I26P,-0.894 ± 0.14
8,T66Q,0.118 ± 0.068
9,R70M,-0.774 ± 0.33
10,K46H,-0.195 ± 0.16
11,N35I,-0.337 ± 0.29
12,N55E,-0.079 ± 0.093
13,K54M,-0.1 ± 0.073
14,D72Q,-0.702 ± 0.3
15,I38D,-0.286 ± 0.18
16,H7L,-0.366 ± 0.055
17,N55Y,-0.041 ± 0.15
18,V64D,-0.858 ± 0.25
19,I3M,-0.081 ± 0.096
20,R30Q,-0.188 ± 0.097
21,S63Y,-0.003 ± 0.13

row,Variant,abundance fitness
1,I3S,-0.411 ± 0.062
2,V4P,-0.921 ± 0.15
3,F42Y,0.023 ± 0.1
4,D59G,-0.011 ± 0.056
5,V4Q,-0.659 ± 0.19
6,K46N,-0.044 ± 0.11
7,E78F,-0.13 ± 0.1
8,T58Q,0.034 ± 0.11
9,T58S,0.106 ± 0.058
10,A16T,-0.841 ± 0.21
11,I26L,-0.96 ± 0.15
12,S63K,0.002 ± 0.097
13,E18F,-0.451 ± 0.13
14,T13G,-0.417 ± 0.062
15,N33F,-0.082 ± 0.14
16,D6R,-0.163 ± 0.048
17,A60P,-0.993 ± 0.2
18,A2W,0.169 ± 0.077
19,D24H,-0.068 ± 0.087
20,K67V,-0.276 ± 0.051
21,R51M,-0.682 ± 0.18

row,Variant,abundance fitness
1,G9S,-0.535 ± 0.081
2,G9H,-0.667 ± 0.37
3,T57F,-0.39 ± 0.13
4,E14L,-0.306 ± 0.065
5,I71W,-0.029 ± 0.077
6,N27Y,-0.149 ± 0.14
7,L37S,-0.132 ± 0.064
8,I3V,-0.05 ± 0.053
9,L61G,-0.954 ± 0.12
10,L8E,-0.984 ± 0.22
11,I71G,0.085 ± 0.049
12,E25A,-0.457 ± 0.097
13,R17Y,-0.061 ± 0.092
14,R17V,-0.161 ± 0.059
15,Q40D,-0.726 ± 0.23
16,K54F,-0.156 ± 0.088
17,S36D,0.155 ± 0.11
18,S41T,-0.211 ± 0.097
19,E14W,-0.469 ± 0.14
20,L61S,-0.665 ± 0.11
21,N33P,-0.812 ± 0.18

row,Variant,abundance fitness
1,D6C,-0.418 ± 0.14
2,N35D,-0.053 ± 0.091
3,K54R,-0.064 ± 0.042
4,V23E,-0.04 ± 0.1
5,T58R,-0.067 ± 0.051
6,V64Y,-0.166 ± 0.15
7,N27A,-0.082 ± 0.067
8,N27T,-0.174 ± 0.075
9,N69K,-0.104 ± 0.14
10,L10Q,0.04 ± 0.074
11,R17T,-0.037 ± 0.063
12,A60Q,-0.021 ± 0.069
13,S41Y,-0.67 ± 0.45
14,D6I,-0.755 ± 0.42
15,L37K,-0.169 ± 0.15
16,M1V,-0.151 ± 0.08
17,S63F,-0.153 ± 0.15
18,V49M,-0.082 ± 0.074
19,L37G,-0.413 ± 0.068
20,K46T,-0.061 ± 0.067
21,H7P,-0.881 ± 0.11
